Results on 27 sequences are retold here after the supplement of paper PMC9170038.

The series deals with MS2 coat protein. The series can be described thus: apparent KD of MS2 coat protein; designed switch direction (-1 OFF switch, 1 ON switch): 1; higher = weaker reporter binding. The method in brief: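 For each design, the apparent KD is the median over clusters of curves fitted to normalised cluster fluorescence. Clusters held RNA switches with common flanks, transcribed on Illumina chips by stalled E. coli RNA polymerase. These were titrated with SNAP-549-labelled MS2 coat protein, doubling from 0.7 or 1.5 nM to 3 µM, without input, with 200 uM small-molecule ligand, or with an oligonucleotide input.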

Where [1] appears, read: input ligand: microRNA oligo, concentration not stated.
Setting [2] is: Eterna round: R95, input ligand: FMN 200 uM.
Setting [3] is: Eterna round: R95, input ligand: microRNA oligo, concentration not stated.
[4] abbreviates: Eterna round: R95, input ligand: none.

As to “GACAAUCUAUCUGAGGAUAUCAUGAAAAAAACAUGAGGAUCACCCAUGUGCAGGAAAACUGCAUAUGAGAAGGCAGAUAGAUUGC [salish99_SS2_r3_012] (Eterna round: R96, puzzle: Same State 2)”, the “apparent KD of MS2 coat protein” value under setting [1] is 429 nM.
In the case of “GACAAUCUAUCUGAGGAUAUCAUGAAAAAAACAUGAGGAUCACCCAUGUGCAGGAAAACUGCAUAUGAGAAGGCAGAUAGAUUGC [salish99_SS2_r3_012] (puzzle: Same State 2)”, the “apparent KD of MS2 coat protein” value reads like this: under setting [2], 34.1 nM; under setting [3], 443 nM; under setting [4], 781 nM.
The matching figures for “GACAAUCUAUCUGAGGAUAUCAUGAGAAUAACAUGAGGAUCACCCAUGUGCAGGAAAACUGCAUAUGAGAAGGCAGAUAGAUUGA [Mat - Same State 2 - Mod - D15] (puzzle: Same State 2)”: 48.2 nM, 567 nM and 603 nM.
On to “GACCGCGAGGAAGGAUAUGGAGCCUUAUUGGCUCCAGAAGGUCCAUAAAGGACAUGAGGAUCACCCAUGUGGGUUGAAGCGGUC [Fiskers NG1ss - 38] (Eterna round: R96, puzzle: Same State NG 1)”, for which the “apparent KD of MS2 coat protein” value came to 24.6 nM (input ligand: FMN 200 uM), 125 nM under setting [1] and 173 nM (input ligand: none).
Regarding “GAGAAGAGGGACAAGGAUAUGUCAGGAGAGACAUGAGGAUCACCCAUGUAGAGGUUGGAGGAGAGACAGAAGGUGUCGGGAGCGA [JR_SS2_Sub013] (puzzle: Same State 2)”, the “apparent KD of MS2 coat protein” value runs as follows: under setting [2], 86.8 nM; under setting [3], 73.7 nM; under setting [4], 109 nM.
Turning to “GAGAGACGAUUAGGAUAUCCGGUGAUAAUGAUAGGAGAAGGAAUUGACAUGAGGAUCACCCAUGUAGGAAUAAUCCAGAGAGAG [Parity 25 - Jieux - Same State NG 1] (Eterna round: R96, puzzle: Same State NG 1)”, the “apparent KD of MS2 coat protein” value (input ligand: FMN 200 uM) is 51.5 nM, the “apparent KD of MS2 coat protein” value under setting [1] was 28.5 nM and the “apparent KD of MS2 coat protein” value (input ligand: none) turned out to be 48.8 nM.
The matching figures for “GAGCCAGUCCGAGGAUAUUACAUGAGGAUCACCCAUGUAGGCUCAGAAAAGAAAAGAGAGCCUUGGGAGAAGGCGGACUGGCUC [Xeonanisa<<9] (Eterna round: R96, puzzle: Same State NG 2)”: 8.19 nM, 20.1 nM and 39.1 nM.
“GAGGGACAGACCAACAUGAGGAUCACCCAUGUCCUCGCAGGUCAGGAUAUCCGGCCAACAGGCAAGGAGAAGGGACGGUGAACC (Eterna round: R96, puzzle: Same State NG 3)”: the “apparent KD of MS2 coat protein” value amounted to 418 nM (input ligand: FMN 200 uM), 344 nM under setting [1] and 479 nM (input ligand: none).
For the sequence “GAGGGACAUGAGGAUCACCCAUGUGGAGGGAGUAAAGGAUAUUAGUGUGGGAAAGUAGGGUAAGAAGGUUGAUUGG [JR_SS1_Sub084] (puzzle: Same State 1)”, the “apparent KD of MS2 coat protein” value runs as follows: under setting [2], 103 nM; under setting [3], 74.9 nM; under setting [4], 209 nM.
Turning to “GAGGGCGAAAGCAACAUGAGGAUCACCCAUGUUGUCGAAAGGCAGGAUAUCCGGCGAAAGCAGAAGGAGAAGGGUCGAAAAGAA [AK SSNG3-V2-40] (Eterna round: R96, puzzle: Same State NG 3)”, the “apparent KD of MS2 coat protein” value runs as follows: (input ligand: FMN 200 uM) 14.5 nM; under setting [1], 19.7 nM; (input ligand: none) 24.9 nM.
Regarding “GAGGGCGAAAGCGACAUGAGGAUCACCCAUGUCCUCGGAGGGCAGGAUAUCCGGCAAAAGCCGAAGGAGAAGGGUCGAAAAGAA [AK SSNG3-V2-38.1] (Eterna round: R96, puzzle: Same State NG 3)”, the “apparent KD of MS2 coat protein” value came out at 66.4 nM (input ligand: FMN 200 uM), 26 nM under setting [1] and 41.1 nM (input ligand: none).
For “GAGUAGGAGUUACAGGAUAUAUGGAGGAGGACAUGAGGAUCACCCAUGUGAGAGAUGAGAGGAGGAUAGAAGGGUAAGGGAGUAA [JR_SS2_Sub028] (puzzle: Same State 2)”, the “apparent KD of MS2 coat protein” value came out at 24 nM under setting [2], 20.6 nM under setting [3] and 46.2 nM under setting [4].
Take “GAGUAGUUGAAAGGAUAUGGAUUAUUGUAGGAUCCAGAAGGUUUUAACAUGAGGAUCACCCAUGUAGGACUAUAUAUGUGAAUA [Parity 96 - Jieux - Same State NG 1] (Eterna round: R96, puzzle: Same State NG 1)”: the “apparent KD of MS2 coat protein” value runs as follows: (input ligand: FMN 200 uM) 15.3 nM; under setting [1], 10.2 nM; (input ligand: none) 15.4 nM.
Regarding “GAGUGGCAGUUAGGAUAUACAGUGAUAAUGAUAGUAGAAGGAACAGACAUGAGGAUCACCCAUGUAGGACUAAUCCAGAGAGAG [Parity 33 - Jieux - Same State NG 1] (Eterna round: R96, puzzle: Same State NG 1)”, the “apparent KD of MS2 coat protein” value was 30.8 nM (input ligand: FMN 200 uM), 29.8 nM under setting [1] and 34.9 nM (input ligand: none).
For the sequence “GAGUGGCAGUUAGGAUAUACAGUGAUAAUGAUAGUAGAAGGAACUGACAUGAGGAUCACCCAUGUAGGACUAAUCCAGAGAGAG [Parity 32 - Jieux - Same State NG 1] (Eterna round: R96, puzzle: Same State NG 1)”, the “apparent KD of MS2 coat protein” value (input ligand: FMN 200 uM) stood at 92.3 nM, the “apparent KD of MS2 coat protein” value under setting [1] was 21.2 nM and the “apparent KD of MS2 coat protein” value (input ligand: none) came out at 31.5 nM.
For the sequence “GAGUGGUGGAGAGGAUAUACAUUGAUAUUCACUGUAGAAGGUUCUAACAUGAGGAUCACCCAUGUAGGACUAUUCCUGAGAGUU [Parity 54 - Jieux - Same State NG 1] (Eterna round: R96, puzzle: Same State NG 1)”, the “apparent KD of MS2 coat protein” value runs as follows: (input ligand: FMN 200 uM) 11 nM; under setting [1], 8.99 nM; (input ligand: none) 14.7 nM.
“GAGUUACUAUCUCAGGAUAUCAUGUCAAAGACAUGAGGAUCACCCAUGUACCAGGAAACUGGUUAUGAGAAGGGAGAUAGUAACA [Mat - Same State 2 - Mod - D51] (puzzle: Same State 2)”: the “apparent KD of MS2 coat protein” value runs as follows: under setting [2], 113 nM; under setting [3], 9.6 nM; under setting [4], 14.4 nM.
As for “GAUAGACAUGAGGAUCACCCAUGUGACAAAACCACAGGAUAUCAUGCAGGCGUACCUGCAUGAGAAGGGUGAGACU [Ceriinaqu] (puzzle: Same State 1)”, the “apparent KD of MS2 coat protein” value is, setting by setting: under setting [2], 29.7 nM; under setting [3], 35.3 nM; under setting [4], 22 nM.
For “GAUUAACAUGAGGAUCACCCAUGUCGUAUUAUGGGAGGAUAUACGUGGACCGUAGUCCGCGUAGAAGGCCUAAUUG [JL-ss1-3.21 janelle mod] (puzzle: Same State 1)”, under setting [3], the “apparent KD of MS2 coat protein” value was 76.4 nM.
Consider “GCAACGUGAUUAGGAUAUGCGAAACCCAUGGAAACUACACAUGAGGAUCACCCAUGUCCAUAGCCGCAGAAGGGAUCCGGAGCA [Eternabot solution 6] (Eterna round: R96, puzzle: Same State NG 2)”, for which the “apparent KD of MS2 coat protein” value came out at 32.1 nM (input ligand: FMN 200 uM), 90.3 nM under setting [1] and 147 nM (input ligand: none).
Consider “GCAGGACGAUAAUAUAACUUCACAUGAGGAUCACCCAUGUCUCAGGAUAUGGAUCCUAAUUGGAUCCAGAAGGGAGCGUCCUGC [Fiskers NG3ss - 34] (Eterna round: R96, puzzle: Same State NG 3)”, for which the “apparent KD of MS2 coat protein” value runs as follows: (input ligand: FMN 200 uM) 14.5 nM; under setting [1], 25.9 nM; (input ligand: none) 35.1 nM.
“GCAUCACAUGAGGAUCACCCAUGUCUUCGGAGUCGAGGAUAUGGUCACUGUAAACAGUGGCCAGAAGGCGAGAUGC [SS1 - Son of Teenbexe] (puzzle: Same State 1)”: the “apparent KD of MS2 coat protein” value under setting [3] is 41.4 nM.
Turning to “GCCAACACAUGAGGAUAUGGCACCUUAUUGGUGCCAGAAGGCAUGUCUAUUGACAUGAGGAUCACCCAUGUAUUAUAGUUGGCA [Fiskers NG1ss - 14] (Eterna round: R96, puzzle: Same State NG 1)”, the “apparent KD of MS2 coat protein” value by setting is: (input ligand: FMN 200 uM) 75.2 nM; under setting [1], 214 nM; (input ligand: none) 1210 nM.
In the case of “GCCAUCGAAUGAGGAUAUGGCACCGUUUCGGUGCCAGAAGGCAUGUCAAUUGACAUGAGGAUCACCCAUGUAUUAUCGAUGGCA [JL Fiskers NG1ss - 33 mod 5] (Eterna round: R96, puzzle: Same State NG 1)”, the “apparent KD of MS2 coat protein” value came to 119 nM (input ligand: FMN 200 uM), 712 nM under setting [1] and 1640 nM (input ligand: none).
For “GCCGCAAGGGCAGGAUAUGGGUCCAGAGUGCAAAUACACUCUGGUACAUGAGGAUCACCCAUGUCCCAGAAGGGCCCAAGCGGC [Teerledion] (Eterna round: R96, puzzle: Same State NG 2)”, the “apparent KD of MS2 coat protein” value came out at 13.9 nM (input ligand: FMN 200 uM), 71 nM under setting [1] and 127 nM (input ligand: none).
The matching figures for “GCGAAAGCGGUAGGAUAUCUAGGAUAUGGGAAGACCUAAGGUUGGAAGUCACUUCACCCAGAAGGAGAGAAGGACACCGAAAGG [pwkr ssNG2 2FMN + F9.2] (Eterna round: R96, puzzle: Same State NG 2)”: 36.6 nM, 113 nM and 134 nM.
The matching figures for “GCGAAGAGGUAAGGAUAUGCAUGGCGGAGACAUGAGGAUCACCCAUGUUGGAGACGAAAUCUAGGGUAGAAGGUACCGGGAAGC [ssng2 v2 b] (Eterna round: R96, puzzle: Same State NG 2)”: 75.4 nM, 70.2 nM and 110 nM.
